Values belong to the binder of their own block, whether it stands above or below them.
B10: OsSGT1 aa 200-368 (other)
chain: QMLSVSIEVPGEEPYHFQPRLFSKIIPEKSRYQVLSTKVEIRLAKAEQITWTSLDYDKKPKAVPQKIIPPAESAQRPSYPSSKSKKDWDKLEAEVKKEEKEEKLEGDAALNKFFRDIYSDADEDMRRAMMKSFVESNGTVLSTNWKDVGSKKVEGSPPDGMELKKWEY
notes: bait, Gal4 DBD fusion; also called PN20285

Columns and labels:
[1] = molecular target: T1, OsERP (PN20696) aa 23-120 (Oryza sativa, UniProt Q0JBH9 23-120); experiment: Y2H; output trait library
T1 construct: bait, Gal4 DBD fusion; also called Elicitor responsive protein
T1 sequence: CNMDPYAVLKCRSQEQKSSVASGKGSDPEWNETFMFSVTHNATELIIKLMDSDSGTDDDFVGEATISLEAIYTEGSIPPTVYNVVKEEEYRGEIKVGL
Method in brief: (§1)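 Protein interactions were tested in an automated, high-throughput yeast two-hybrid screen supplied by Myriad Genetics Inc. Fragments of rice proteins, defined by amino-acid range, served as bait against rice prey clone libraries. Interacting prey clones were retrieved from the output trait library. The sequences encoding the retrieved fragments were compared by BLAST analysis against databases to identify the full-length genes. Each value records whether an interaction was detected.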

OsCATA aa 332-433 = molecular target: T2, OsCATA aa 332-433 (Oryza sativa, UniProt P0C549 332-433); experiment: Y2H; input trait library
T2 construct: prey, AD fusion; also called PN20899; O. sativa Catalase A Isozyme
T2 sequence: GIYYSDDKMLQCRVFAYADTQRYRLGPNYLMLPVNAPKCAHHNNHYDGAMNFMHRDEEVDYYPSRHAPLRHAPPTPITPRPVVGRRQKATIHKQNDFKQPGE
Method in brief: (§2)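 Protein-protein interactions were detected with an automated, high-throughput yeast two-hybrid assay provided by Myriad Genetics Inc. (Salt Lake City, Utah). A bait clone encoding a defined amino-acid fragment of a rice protein was screened against a rice prey library, either the input trait or the output trait library. Prey clones were retrieved, and their encoding sequences were compared by BLAST against databases to identify the interacting proteins.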

OsCS aa 411-489 = molecular target: T3, OsCS aa 411-489 (Oryza sativa, UniProt A2Y0X2 411-489); experiment: Y2H; input trait library
T3 construct: prey, AD fusion; also called PN19707; O. sativa Cellulose Synthase Catalytic Subunit, RSW1-Like
T3 sequence: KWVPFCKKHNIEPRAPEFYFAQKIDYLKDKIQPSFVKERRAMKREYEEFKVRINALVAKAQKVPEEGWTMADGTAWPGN
Method in brief: as §2

OsPN22154 aa 390-562 = molecular target: T4, OsPN22154 aa 390-562 (Oryza sativa, UniProt Q6Z6L4 390-562); experiment: Y2H; input trait library
T4 construct: prey, AD fusion; also called Novel Protein PN22154, Similar to A. thaliana Glutamyl Aminopeptidase
T4 sequence: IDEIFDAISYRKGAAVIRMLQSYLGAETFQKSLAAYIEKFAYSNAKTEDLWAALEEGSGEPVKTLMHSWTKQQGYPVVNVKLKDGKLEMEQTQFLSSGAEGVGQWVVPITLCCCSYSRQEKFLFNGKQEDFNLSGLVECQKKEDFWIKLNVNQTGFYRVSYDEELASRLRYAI
Method in brief: as §2

PN20674 aa 71-298 = molecular target: T5, PN20674 aa 71-298 (Oryza sativa, UniProt Q6AVA8 71-298); experiment: Y2H; input trait library
T5 construct: prey, AD fusion; also called Pyruvate orthophosphate dikinase-like
T5 sequence: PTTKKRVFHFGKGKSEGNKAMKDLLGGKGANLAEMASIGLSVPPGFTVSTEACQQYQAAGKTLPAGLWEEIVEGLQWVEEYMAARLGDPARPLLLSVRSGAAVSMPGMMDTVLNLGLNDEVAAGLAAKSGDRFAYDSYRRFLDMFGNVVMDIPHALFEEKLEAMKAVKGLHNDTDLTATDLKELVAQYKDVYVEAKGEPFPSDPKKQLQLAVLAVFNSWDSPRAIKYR
Method in brief: as §2

PN20674 aa 64-263 = molecular target: T6, PN20674 aa 64-263 (Oryza sativa, UniProt Q6AVA8 64-263); experiment: Y2H; input trait library
T6 construct: prey, AD fusion; also called Pyruvate orthophosphate dikinase-like
T6 sequence: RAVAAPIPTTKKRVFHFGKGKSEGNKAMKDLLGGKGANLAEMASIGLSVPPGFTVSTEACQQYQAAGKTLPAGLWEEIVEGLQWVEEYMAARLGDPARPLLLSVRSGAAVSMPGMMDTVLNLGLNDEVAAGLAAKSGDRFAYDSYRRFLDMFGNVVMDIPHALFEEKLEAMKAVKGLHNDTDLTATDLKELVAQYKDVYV
Method in brief: as §2

OsSGT1 aa 200-368 = molecular target: B10; experiment: Y2H; input trait library
Method in brief: as §2

OsS49462 aa 1-100 = molecular target: T7, OsS49462 aa 1-100 (Oryza sativa, UniProt Q01J96 179-278); experiment: Y2H; input trait library
T7 construct: bait, Gal4 DBD fusion; also called PN20325; O. sativa Cyclin OsS49462, Fragment
T7 sequence: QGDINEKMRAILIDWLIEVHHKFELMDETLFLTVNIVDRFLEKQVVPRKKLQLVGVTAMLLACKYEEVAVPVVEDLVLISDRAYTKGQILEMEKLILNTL
Method in brief: as §2

Os008938-3209 aa 53-259 = molecular target: T8, Os008938-3209 aa 53-259 (Oryza sativa, UniProt Q06967 53-259); experiment: Y2H; input trait library
T8 construct: prey, AD fusion; also called PN20215; O. sativa Putative 14-3-3 Protein
T8 sequence: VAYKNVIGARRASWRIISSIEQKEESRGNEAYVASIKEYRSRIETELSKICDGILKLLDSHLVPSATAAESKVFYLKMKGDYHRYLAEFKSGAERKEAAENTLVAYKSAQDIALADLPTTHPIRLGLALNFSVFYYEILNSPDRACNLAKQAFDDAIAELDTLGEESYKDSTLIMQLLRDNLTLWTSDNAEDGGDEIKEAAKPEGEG
Method in brief: as §2

OsRACD aa 1-198 = molecular target: T9, OsRACD aa 1-198 (Oryza sativa, UniProt Q6EP31 1-197); experiment: Y2H; input trait library
T9 construct: bait, Gal4 DBD fusion; also called PN19695
Method in brief: as §2

OsSSS aa 68-270 = molecular target: T10, OsSSS aa 68-270 (Oryza sativa, UniProt A2Y9M4 68-270); experiment: Y2H; input trait library
T10 construct: prey, AD fusion; also called PN19701; Soluble Starch Synthase
T10 sequence: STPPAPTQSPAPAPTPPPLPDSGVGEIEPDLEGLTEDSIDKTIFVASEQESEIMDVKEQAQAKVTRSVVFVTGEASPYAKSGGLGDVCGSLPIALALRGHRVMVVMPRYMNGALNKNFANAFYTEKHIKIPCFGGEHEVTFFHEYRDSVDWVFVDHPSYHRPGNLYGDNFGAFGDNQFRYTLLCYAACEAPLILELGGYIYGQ
Method in brief: as §2

OsSSS aa 97-263 = molecular target: T11, OsSSS aa 97-263 (Oryza sativa, UniProt A2Y9M4 97-263); experiment: Y2H; output trait library
T11 construct: prey, AD fusion; also called PN19701
T11 sequence: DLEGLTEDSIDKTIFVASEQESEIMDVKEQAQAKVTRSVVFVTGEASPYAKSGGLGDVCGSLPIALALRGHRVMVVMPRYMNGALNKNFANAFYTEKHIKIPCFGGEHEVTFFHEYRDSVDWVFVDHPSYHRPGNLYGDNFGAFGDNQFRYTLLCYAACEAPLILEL
Method in brief: as §2

Os003118-3674 aa 75-149 = molecular target: T12, Os003118-3674 aa 75-149 (Oryza sativa, UniProt Q84VG0 75-148); experiment: Y2H; output trait library
T12 construct: bait, Gal4 DBD fusion; also called PN20551
T12 sequence: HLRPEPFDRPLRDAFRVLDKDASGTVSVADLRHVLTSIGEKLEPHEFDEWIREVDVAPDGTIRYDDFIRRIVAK
Method in brief: as §2

PN24061 aa 34-236 = molecular target: T13, PN24061 aa 34-236 (Oryza sativa, UniProt A2XLV9 34-236); experiment: Y2H; output trait library
T13 construct: prey, AD fusion; also called Auxin induced protein-like
T13 sequence: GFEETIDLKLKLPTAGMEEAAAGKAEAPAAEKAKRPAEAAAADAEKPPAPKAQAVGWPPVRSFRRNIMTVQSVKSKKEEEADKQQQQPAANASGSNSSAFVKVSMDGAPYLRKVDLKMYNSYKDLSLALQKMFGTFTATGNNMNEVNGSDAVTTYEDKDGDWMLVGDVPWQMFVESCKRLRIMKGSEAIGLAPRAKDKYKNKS
Method in brief: as §1

OsCS aa 316-583 = molecular target: T14, OsCS aa 316-583 (Oryza sativa, UniProt A2Y0X2 316-583); experiment: Y2H; input trait library
T14 construct: bait, Gal4 DBD fusion; also called PN19707
T14 sequence: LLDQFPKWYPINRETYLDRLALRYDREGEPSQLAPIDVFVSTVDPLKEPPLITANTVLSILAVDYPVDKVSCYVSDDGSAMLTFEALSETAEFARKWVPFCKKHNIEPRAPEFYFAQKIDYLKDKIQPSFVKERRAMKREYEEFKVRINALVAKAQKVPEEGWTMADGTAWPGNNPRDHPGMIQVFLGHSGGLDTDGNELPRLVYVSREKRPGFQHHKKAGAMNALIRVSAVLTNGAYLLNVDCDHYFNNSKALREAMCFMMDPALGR
Method in brief: as §2

T9 sequence (Q6EP31 whole entry, the tested form may be a part): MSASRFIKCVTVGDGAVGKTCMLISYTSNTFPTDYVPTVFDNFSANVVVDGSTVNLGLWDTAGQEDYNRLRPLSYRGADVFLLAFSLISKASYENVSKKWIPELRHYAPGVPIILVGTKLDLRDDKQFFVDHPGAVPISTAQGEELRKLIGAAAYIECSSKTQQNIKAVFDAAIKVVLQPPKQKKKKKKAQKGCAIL

binding result [1]: binds
B1: PN31085 aa 378-553 (other)
chain: NGTISDSLGNLSELSDINLIGNNLTGHVPDSLTSLRLLQKLDLSGNDLTGPLPTFSPSVKVNVTGNLNFNGTAPGSAPSKDTPGSSSSRAPTLPGQGVLPENKKKRSAVVLATTIPVAVSVVALASVCAVLIFRKKRGSVPPNAASVVVHPRENSDPDNLVKIVMVNNDGNSSSTQ
notes: prey, AD fusion; also called Receptor-like protein kinase-like

binding result (OsCATA aa 332-433): binds
binding result (OsCS aa 411-489): binds
binding result (OsPN22154 aa 390-562): binds
B2: OsCHIB1 aa 10-200 (enzyme)
chain: YIGAQFTGVRFSDVPVNPGLSFHFILAFAIDYFMATQSSKPAPANGVFAPYWDTANLSPAAVAAAKAAHPNLSVILALGGDTVQNTGVNATFAPTSSVDAWVRNAADSVSGLIDAYGLDGVDVDYEHFAAGVDTFVECIGRLLTELKARHPNIATSIAPFEHPVVQRYYQPLWRRYAGVIDYVNFQFYGYG
notes: bait, Gal4 DBD fusion; also called PN19651; O. sativa Chitinase, Class III

binding result (PN20674 aa 71-298): binds
binding result (PN20674 aa 64-263): binds
B3: OsERP (PN20696) aa 50-145 (other)
chain: PEWNETFMFSVTHNATELIIKLMDSDSGTDDDFVGEATISLEAIYTEGSIPPTVYNVVKEEEYRGEIKVGLTFTPEDDRDRGLSEEDIGGWKQSS
notes: bait, Gal4 DBD fusion; also called Elicitor responsive protein

binding result (OsSGT1 aa 200-368): binds
B4: PN20696 (OsERP) aa 54-144 (other)
chain: ETFMFSVTHNATELIIKLMDSDSGTDDDFVGEATISLEAIYTEGSIPPTVYNVVKEEEYRGEIKVGLTFTPEDDRDRGLSEEDIGGWKQSS
notes: prey, AD fusion; also called Elicitor responsive protein

binding result (OsS49462 aa 1-100): binds
B5: OsPN30848 aa 365-476 (other)
chain: DCSLAKPPAADKKDDRVPLPSSNGAPLLPSYPPLGYGIMSVPGAYGAAPASTAQPMLYAPRAPPGAAMVPMMLPDGRLVYVVQQPGGQLPLASPPPQQAGHRSGSGGRHGGS
notes: prey, AD fusion

binding result (Os008938-3209 aa 53-259): binds
B6: OsCAA90866 aa 100-250 (other)
chain: GEMTERVAQEDRIPVLKASQDHLKEFISICEALELISEDELEISRQKNLIPWQIEEHRRLHGSSAKRLQKQSSRIKERKERRRRHESSCLSAPIELGGDLLRMMEKEREGMVSYYLIGSIEGFDLLDMLKKEEEIVPAVKEGKRRMVMHLL
notes: bait, Gal4 DBD fusion; also called PN20311; O. sativa Chilling-Inducible Protein CAA90866

binding result (OsRACD aa 1-198): binds
B7: OsPN22824 aa 301-500 (other)
chain: DGEEVSCGIKAALAEKELEEEETKKMIEEESIDATAIDSGEKENPEVAELKAKLMAKDMEVAILTADNAELKKQVGEAAEAAKKAEEEAAAKASLVEQDLKERAAREARMGEQLRASEAARETLEAEMRRLRVQTEQWRKAAEAAPPVIGGDAHFVGHNGNGWGSPATMPDDCDDEGFGGKRKGAGIRMLGDLWKKKGSK
notes: prey, AD fusion

binding result (OsSSS aa 68-270): binds
binding result (OsSSS aa 97-263): binds
B8: OsCRTC aa 250-425 (other)
chain: PKEIPDPDAKKPEAGADEEDGEWTAPTIRNPEYKGPWKQKKIKNPNYQGKWKPPMIATPDFQDDPYIYAFDSLKSIGIELWQVKSGTLFDNILITDDAALAKTFAEETWAKHKDAEKAAFDEAEKKKEEEEAAKAGEDDDDLDDEDAEDEDKADEKADSDAEDGKDSDDEKHDEL
notes: bait, Gal4 DBD fusion; also called PN20544

binding result (Os003118-3674 aa 75-149): binds
B9: OsPN23878 aa 824-935 (other)
chain: SLARKHRAAIILQRNLKCWLARRYFVNIRKASVVIQSGIRGCLVRRCAGNVDLLNVLREFESKKEAEGDQILIKASFLAELQRRILKAEATVREKDEENEMLQQRLQQYENR
notes: prey, AD fusion

Binder: B10
binding result (PN24061 aa 34-236): binds

binding result (OsCS aa 316-583): binds
B11: OsCS aa 316-582 (other)
chain: LLDQFPKWYPINRETYLDRLALRYDREGEPSQLAPIDVFVSTVDPLKEPPLITANTVLSILAVDYPVDKVSCYVSDDGSAMLTFEALSETAEFARKWVPFCKKHNIEPRAPEFYFAQKIDYLKDKIQPSFVKERRAMKREYEEFKVRINALVAKAQKVPEEGWTMADGTAWPGNNPRDHPGMIQVFLGHSGGLDTDGNELPRLVYVSREKRPGFQHHKKAGAMNALIRVSAVLTNGAYLLNVDCDHYFNNSKALREAMCFMMDPALG
notes: prey, AD fusion; also called PN19707

Source: patent US20060253917A1 (published 2006)
